Laboratory results taken from patent US9221867B2, “Method for transporting a compound across the blood-brain barrier” (Angiochem Inc., priority 2003, dated 2015).
Entries after “also recorded” stand apart in the source; their conditions may differ. Read-outs that look alike come from different tables or passages of the source. Where a SMILES comes first, the peptide text is derived from it.

Legend:
in vitro = conditions: bovine
Procedure: (§1) The permeability coefficient (Pe) was calculated as:
(§2) At the end of the experiments, amounts of the radiotracers in the basolateral compartment were measured in a liquid scintillation counter. The permeability coefficient (Pe) for sucrose was calculated as previously described (Dehouck, M. P., Jolliet-Riant, P., Brée, F., Fruchart, J. C., Cecchelli, R., Tillement, J. P., J. Neurochem. 58:1790-1797, 1992) using filters coated or non-coated with EC.
(§3) The transport of Angio-pep1 from the apical-to-basolateral side of inserts covered with or without endothelial cell monolayers was measured. The results are expressed as the clearance of Angio-pep1 as a function of time. The slopes correspond to the permeability of the peptide through the filter alone (Psf) and to the total permeability of the endothelial cell monolayers (Pst).
(§4) The permeability coefficients for Angio-pep1, aprotinin, leptin and transferrin were determined using the in vitro blood-brain barrier model. The permeability coefficient (Pe) was calculated as described above.

[1] = test system: bovine brain capillary endothelial cells (BBCECs)
Procedure: (§5) The model consists of a co-culture of bovine brain capillary endothelial cells and rat glial cells.
(§6) The in vitro model of BBB was established by using a co-culture of BBCECs and astrocytes. Prior to cell culture, plate inserts (Millicell-PC 3.0 μM; 30-mm diameter) were coated on the upper side with rat tail collagen. They were then set in six-well microplates containing the astrocytes and BBCECs were plated on the upper side of the filters in 2 mL of co-culture medium. This BBCEC medium was changed three times a week. Under these conditions, differentiated BBCECs formed a confluent monolayer 7 days later. Experiments were performed between 5 and 7 days after confluence was reached. The permeability coefficient for sucrose was measured to verify the endothelial permeability.
(§7) Briefly, after removing the meninges, the brain tissue was forced gently through a 82 μm nylon sieve. Astrocytes were plated on six-well microplates at a concentration of 1.2×10^5 cells/mL in 2 mL of optimal culture medium (DMEM) supplemented with 10% heat inactivated fetal bovine serum. The medium was changed twice a week.
(§8) Bovine brain capillary endothelial cells (BBCECs) were obtained from Cellial Technologies. The cells were cultured in the presence of DMEM medium supplemented with 10% (v/v) horse serum and 10% heat-inactivated calf serum, 2 mM of glutamine, 50 μg/mL of gentamycin, and 1 ng/mL of basic fibroblast growth factor, added every other day.
(§9) One insert covered with BBCECs was set into a six-well microplate with 2 mL of Ringer-Hepes and was pre-incubated for 2 h at 37° C. [^125I]-aprotinin, [^125I]-p97, [^125I]-ceruloplasmin or [^125I]-transferrin (250 nM final concentration) was added to the upper side of the filter covered with cells. At various times, the insert was transferred to another well to avoid a possible reendocytosis of [^125I]-proteins by the abluminal side of the BBCECs. At the end of experiment, [^125I]-proteins were assessed in 500 μL of the lower chamber of well by TCA precipitation.
(§10) Aprotinin, p97 and bovine holo-transferrin were iodinated with standard procedures using iodo-beads from Sigma™. Bovine holo-transferrin was diluted in 0.1M phosphate buffer, pH 6.5 (PB). P97 obtained from Synapse Technologies in neutralized citrate at pH 7.0 was dialyzed against this PB. Two iodo-beads were used for each protein. These beads were washed twice with 3 mL of PB on a Whatman™ filter and resuspended in 60 μL of PB. ^125I (1 mCi) from Amersham-Pharmacia biotech was added to the bead suspension for 5 minutes at room temperature. The iodination for each protein was initiated by the addition of 100 μg (80-100 μL).

[2] = test system: endothelial cell monolayers (in vitro blood-brain barrier model)
Procedure: as §1, §2, §3, §4

[3] = test system: endothelial cell monolayers (in vitro blood-brain barrier model); assay: Permeability coefficient (Pe) of proteins in the in vitro blood-brain barrier model; conditions: for Ratios (permeability coefficients): Pe of Angio-pep1 divided by Pe of the named protein; for Permeability coefficient (Pe): in vitro blood-brain barrier model
Procedure: as §1, §2, §3, §4

[4] = test system: bovine brain capillary endothelial cells (BBCECs); assay: Transcytosis of 125I-proteins across BBCEC monolayers (in vitro blood-brain barrier model); conditions: for Transcytosis: across in vitro BBB model; for Ratios Aprotinin/Protein: aprotinin transcytosis divided by that of the named protein
Procedure: as §5, §6, §7, §8, §9, §10

mouse brain = assay: In situ mouse brain perfusion (apparent volume of distribution); conditions: 10 min perfusion
Procedure: The uptake of [^125I]-aprotinin to the luminal side of mouse brain capillaries was measured using the in situ brain perfusion method adapted in our laboratory for the study of drug uptake in the mouse brain (Dagenais et al., 2000, J. Cereb. Blood Flow Metab. 20(2):381-386). Briefly, the right common carotid of ketamine/xylazine (140/8 mg/kg i.p.) anesthetized mice was exposed and ligated at the level of the bifurcation of the common carotid, rostral to the occipital artery. The common carotid was then catheterized rostrally with polyethylene tubing (0.30 mm i.d.×0.70 mm o.d.) filled with heparin (25 U/ml) and mounted on a 26-gauge needle. The syringe containing the perfusion fluid (10 nM of [^125I]-aprotinin in Krebs/bicarbonate buffer at a pH7.4 gassed with 95% O2 and 5% CO2) was placed in an infusion pump (Harvard pump PHD 2000; Harvard Apparatus) and connected to the catheter. […]
Aprotinin uptake was expressed as the volume of distribution (Vd) from the following equation: Vd=Q*br/C*pf where Q*br is the calculated quantity of [^125I]-aprotinin per gram of right brain hemisphere and C*pf is the labeled tracer concentration measured in the perfusate.
The brain apparent volume of distribution was measured for [^125I]-transferrin, [^125I]-aprotinin and [^125I]-Angio-pep1. […]

BBCEC monolayers = assay: SDS-PAGE/autoradiography of protein integrity after transcytosis across BBCEC monolayers; type: in vitro ADME, bovine; conditions: 250 nM, SDS-PAGE, FIG. 4
Source text: At each time point, filters were put in the next well of the 6-well plates. At the end of the experiment, aliquots were taken in each well and submitted to SDS-PAGE. Gels were then submitted to detection by autoradiography. The results, presented in FIG. 4, indicate that aprotinin integrity is not affected by its transcytosis across BBCEC monolayers.

Molecule | Ratios (permeability coefficients) [3] | Permeability coefficient (Pe) [3] | Transcytosis [4] | Ratios Aprotinin/Protein [4] | also measured
C[C@@H](O)[C@H](N)C(=O)N[C@@H](Cc1ccccc1)C(=O)N[C@@H](Cc1ccccc1)C(=O)N[C@@H](Cc1ccc(O)cc1)C(=O)NCC(=O)NCC(=O)N[C@@H](CS)C(=O)N[C@@H](CCCNC(=N)N)C(=O)NCC(=O)N[C@@H](CCCCN)C(=O)N[C@@H](CCCNC(=N)N)C(=O)N[C@@H](CC(N)=O)C(=O)N[C@@H](CC(N)=O)C(=O)N[C@@H](Cc1ccccc1)C(=O)N[C@@H](CCCCN)C(=O)N[C@H](C(=O)N[C@@H](CCC(=O)O)C(=O)N[C@@H](CCC(=O)O)C(=O)N[C@@H](Cc1ccc(O)cc1)C(=O)O)[C@@H](C)O [Angio-pep1] (H-TFFYGGCRGKRNNFKTEEY-OH; N-terminus and C-terminus assumed) |  |  |  |  | Papp A→B (in vitro): 20 ×10⁻⁶ cm/s; transcytosis capacity compared with other proteins [1]: higher than that of other proteins including aprotinin, leptin and transferrin; Ratios (permeability coefficients) [2]: 1; Permeability coefficient (Pe) ([2]; bovine): 20 ×10⁻⁶ cm/s
Leptin: comparison protein for permeability coefficient [reference compound] | 21 | 0.917 ×10⁻⁶ cm/s |  |  | 
Streptavidin: comparison protein in transcytosis experiment [reference compound] |  |  | 0.09 pmol/h/cm^2 | 30 | 
aprotinin | 7.5 | 2.67 ×10⁻⁶ cm/s | 2.7 pmol/h/cm^2 | 1 | brain uptake / apparent volume of distribution (mouse brain): higher brain uptake; also recorded: higher than that of transferrin; integrity of the protein after transcytosis across BBCEC monolayers (BBCEC monolayers): not affected; transcytosis capacity compared with other proteins ([4]; in vitro blood-brain barrier model): higher transcytosis capacity than transferrin, p97 or ceruloplasmin; transendothelial transport / transcytosis of aprotinin higher than that of other proteins ([4]; versus other tested proteins incl. transferrin, ceruloplasmin): 10-50 fold
